Test results taken from the supplement of paper PMC7877785.
± gives the uncertainty stated by the source.

Assay: self-splicing fitness, log relative to wild type (ln ratio); higher = more splicing; Tetrahymena group I intron in knt gene, E. coli kanamycin selection, DiMSum; sequences stand for … in CUCUCU…GGAGGGAAAAGUUAUCAGGCAUGCACCUGGUAGCUAGUCUUUAAACCAAUAGAUUGCAUCGGUUUAAAAGGCAAGACCGUCAAAUUGCGGGAAAGGGGUCAACAGCCGUUCAGUACCAAGUCUCAGGGGAAACUUUGAGAUGGCCUUGCAAAGGGUAUGGUAAUAAGCUGACGGACAUGGUCCUAACCACGCAGCCAAGUCCUAAGUCAACAGAUCUUCUGUUGAUAUGGAUGCAGUUCACAGACUAAAUGUCGGUCGGGGAAGAUGUAUUCUUCUCAUAAGAUAUAGUCGGACCUCUCCUUAAUGGGAGCUAGCGGAUGAAGUGAUGCAACACUGGAGCCGCUGGGAACUAAUUUGUAUGCGAAAGUAUAUUGAUUAGUUUUGGAGUACUCGUGGUCG
Procedure, shortened: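 Library with all eight P1ex-region intron nucleotides randomised, intron inside the knt kanamycin-resistance gene on pET-22b(+), in E. coli BL21(DE3). Cells grew overnight at 37°C or 30°C on LB agar with or without 25 μg/mL kanamycin (plus 100 μg/mL carbenicillin, 50 μM IPTG, 0.2% rhamnose), in six replicate transformations. Pooled colonies were amplicon-sequenced on Illumina HiSeq 2500. DiMSum fitness is the error-weighted combination of wild-type-normalised replicate fold changes, kanamycin versus none.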

In the case of AGCUAGCAAUAUUACGGUAU, the “self-splicing fitness (ln)” value (30 °C) is reported as -1.44 ± 0.08 and the “self-splicing fitness (ln)” value (37 °C) is reported as -0.9 ± 0.1.
In the case of CAUUAGCAAUAUUACGGAGG, the “self-splicing fitness (ln)” value (30 °C) is reported as -0.36 ± 0.11 and the “self-splicing fitness (ln)” value (37 °C) is reported as -0.878 ± 0.16.
With CUUAAGCAAUAUUACGCAUA the “self-splicing fitness (ln)” value (30 °C) was -3.2 ± 0.32.
For AAAGAGCAAUAUUACGAUAA, the “self-splicing fitness (ln)” value (30 °C) was -3.45 ± 0.18 and the “self-splicing fitness (ln)” value (37 °C) was -2.2 ± 0.22.
For UCAGAGCAAUAUUACGCAAG, the “self-splicing fitness (ln)” value (30 °C) was -1.74 ± 0.42 and the “self-splicing fitness (ln)” value (37 °C) was -1.48 ± 0.29.
With GGCCAGCAAUAUUACGUAUG the “self-splicing fitness (ln)” value (30 °C) was -4.17 ± 0.31 and the “self-splicing fitness (ln)” value (37 °C) was -2.85 ± 0.26.
In the case of ACGCAGCAAUAUUACGACUC, the “self-splicing fitness (ln)” value (30 °C) is reported as -0.833 ± 0.08 and the “self-splicing fitness (ln)” value (37 °C) is reported as 0.365 ± 0.096.
For CCGUAGCAAUAUUACGGACG, the “self-splicing fitness (ln)” value (30 °C) was -1.88 ± 0.26.
With AAAAAGCAAUAUUACGGACU the “self-splicing fitness (ln)” value (30 °C) was -0.0499 ± 0.067 and the “self-splicing fitness (ln)” value (37 °C) was -0.0238 ± 0.083.
With AUGCAGCAAUAUUACGUACA the “self-splicing fitness (ln)” value (30 °C) was -0.892 ± 0.064 and the “self-splicing fitness (ln)” value (37 °C) was -0.686 ± 0.076.
In the case of GAGUAGCAAUAUUACGGCCC, the “self-splicing fitness (ln)” value (30 °C) is reported as -0.847 ± 0.18 and the “self-splicing fitness (ln)” value (37 °C) is reported as 0.0966 ± 0.35.
In the case of AUAUAGCAAUAUUACGUGAC, the “self-splicing fitness (ln)” value (37 °C) is reported as -2.85 ± 0.32.
For UAAGAGCAAUAUUACGGAUG, the “self-splicing fitness (ln)” value (30 °C) was -2.57 ± 0.35 and the “self-splicing fitness (ln)” value (37 °C) was -2.59 ± 0.49.
With CAUUAGCAAUAUUACGCGUG the “self-splicing fitness (ln)” value (30 °C) was -3.16 ± 0.15 and the “self-splicing fitness (ln)” value (37 °C) was -2.89 ± 0.24.
For UCACAGCAAUAUUACGAGCU, the “self-splicing fitness (ln)” value (30 °C) was -3.32 ± 0.18 and the “self-splicing fitness (ln)” value (37 °C) was -2.37 ± 0.26.
With CAAUAGCAAUAUUACGAUGA the “self-splicing fitness (ln)” value (30 °C) was -2.26 ± 0.18 and the “self-splicing fitness (ln)” value (37 °C) was -1.54 ± 0.23.
With AAUAAGCAAUAUUACGAAGA the “self-splicing fitness (ln)” value (30 °C) was -1.52 ± 0.26 and the “self-splicing fitness (ln)” value (37 °C) was -1.92 ± 0.32.
With UGGGAGCAAUAUUACGUGCC the “self-splicing fitness (ln)” value (30 °C) was -2.29 ± 0.34 and the “self-splicing fitness (ln)” value (37 °C) was -2.09 ± 0.35.
With GCGAAGCAAUAUUACGUAGU the “self-splicing fitness (ln)” value (30 °C) was -3.8 ± 0.34 and the “self-splicing fitness (ln)” value (37 °C) was -2.13 ± 0.18.
With AUCAAGCAAUAUUACGAUUU the “self-splicing fitness (ln)” value (30 °C) was -0.487 ± 0.056 and the “self-splicing fitness (ln)” value (37 °C) was -0.186 ± 0.072.
In the case of AACGAGCAAUAUUACGGCUC, the “self-splicing fitness (ln)” value (30 °C) is reported as -2.49 ± 0.44.
For UCAAAGCAAUAUUACGUUAC, the “self-splicing fitness (ln)” value (37 °C) was -2.01 ± 0.12.
With ACAUAGCAAUAUUACGCAGC the “self-splicing fitness (ln)” value (37 °C) was -3.15 ± 0.31.
In the case of AAACAGCAAUAUUACGCAGA, the “self-splicing fitness (ln)” value (30 °C) is reported as -2.53 ± 0.15 and the “self-splicing fitness (ln)” value (37 °C) is reported as -1.42 ± 0.11.
For GUUUAGCAAUAUUACGGGUC, the “self-splicing fitness (ln)” value (30 °C) was -3.6 ± 0.47 and the “self-splicing fitness (ln)” value (37 °C) was -1.73 ± 0.2.
With AUCUAGCAAUAUUACGACUG the “self-splicing fitness (ln)” value (30 °C) was -2.01 ± 0.14 and the “self-splicing fitness (ln)” value (37 °C) was -1.07 ± 0.15.
With GCAAAGCAAUAUUACGGCCU the “self-splicing fitness (ln)” value (30 °C) was -0.867 ± 0.12 and the “self-splicing fitness (ln)” value (37 °C) was -0.967 ± 0.16.
In the case of UAGUAGCAAUAUUACGGCUA, the “self-splicing fitness (ln)” value (30 °C) is reported as 0.21 ± 0.14 and the “self-splicing fitness (ln)” value (37 °C) is reported as -0.257 ± 0.19.
In the case of UUCCAGCAAUAUUACGAUAG, the “self-splicing fitness (ln)” value (30 °C) is reported as -2.58 ± 0.18 and the “self-splicing fitness (ln)” value (37 °C) is reported as -1.4 ± 0.16.
For CGGUAGCAAUAUUACGUGAG, the “self-splicing fitness (ln)” value (30 °C) was -0.593 ± 0.059 and the “self-splicing fitness (ln)” value (37 °C) was 0.467 ± 0.092.
With UUCGAGCAAUAUUACGAUAG the “self-splicing fitness (ln)” value (30 °C) was -2.73 ± 0.44 and the “self-splicing fitness (ln)” value (37 °C) was -1.77 ± 0.25.
In the case of AGGCAGCAAUAUUACGUGGU, the “self-splicing fitness (ln)” value (30 °C) is reported as -3.88 ± 0.14 and the “self-splicing fitness (ln)” value (37 °C) is reported as -1.54 ± 0.1.
In the case of AGUUAGCAAUAUUACGAUUU, the “self-splicing fitness (ln)” value (30 °C) is reported as 0.0118 ± 0.094 and the “self-splicing fitness (ln)” value (37 °C) is reported as 0.175 ± 0.11.
In the case of ACGUAGCAAUAUUACGGGCA, the “self-splicing fitness (ln)” value (30 °C) is reported as -0.955 ± 0.099 and the “self-splicing fitness (ln)” value (37 °C) is reported as -0.418 ± 0.12.
In the case of AACUAGCAAUAUUACGGAAC, the “self-splicing fitness (ln)” value (30 °C) is reported as -2.99 ± 0.21 and the “self-splicing fitness (ln)” value (37 °C) is reported as -2.08 ± 0.3.
In the case of GGAAAGCAAUAUUACGGUCA, the “self-splicing fitness (ln)” value (30 °C) is reported as -0.418 ± 0.09 and the “self-splicing fitness (ln)” value (37 °C) is reported as 0.154 ± 0.1.
With AAGCAGCAAUAUUACGUGAA the “self-splicing fitness (ln)” value (30 °C) was -1.35 ± 0.067 and the “self-splicing fitness (ln)” value (37 °C) was -1.05 ± 0.077.
For AAACAGCAAUAUUACGUGAC, the “self-splicing fitness (ln)” value (30 °C) was -3.5 ± 0.14 and the “self-splicing fitness (ln)” value (37 °C) was -2.29 ± 0.13.
With AAUGAGCAAUAUUACGAAUG the “self-splicing fitness (ln)” value (30 °C) was -3.34 ± 0.36.
In the case of UCCGAGCAAUAUUACGAGUC, the “self-splicing fitness (ln)” value (37 °C) is reported as -2.16 ± 0.22.
For CAUCAGCAAUAUUACGGAUU, the “self-splicing fitness (ln)” value (30 °C) was -0.959 ± 0.062 and the “self-splicing fitness (ln)” value (37 °C) was -0.143 ± 0.077.
With CCCUAGCAAUAUUACGCACA the “self-splicing fitness (ln)” value (30 °C) was -2.5 ± 0.14 and the “self-splicing fitness (ln)” value (37 °C) was -1.97 ± 0.15.
In the case of ACGUAGCAAUAUUACGUUCG, the “self-splicing fitness (ln)” value (30 °C) is reported as -2.69 ± 0.12 and the “self-splicing fitness (ln)” value (37 °C) is reported as -0.757 ± 0.12.
For CAAUAGCAAUAUUACGGGUU, the “self-splicing fitness (ln)” value (30 °C) was -4.25 ± 0.2 and the “self-splicing fitness (ln)” value (37 °C) was -2.31 ± 0.14.
With GCACAGCAAUAUUACGACCU the “self-splicing fitness (ln)” value (30 °C) was -0.6 ± 0.11 and the “self-splicing fitness (ln)” value (37 °C) was -0.325 ± 0.13.
